In US20200385710:

Experiments:
[1] = system: T1, Bxb1 integrase, codon-optimized with bipartite Xenopus NLS (Mycobacteriophage Bxb1?); test: cell_activity; details: 1 mM VPA as printed, 27.6% without VPA
T1 sequence: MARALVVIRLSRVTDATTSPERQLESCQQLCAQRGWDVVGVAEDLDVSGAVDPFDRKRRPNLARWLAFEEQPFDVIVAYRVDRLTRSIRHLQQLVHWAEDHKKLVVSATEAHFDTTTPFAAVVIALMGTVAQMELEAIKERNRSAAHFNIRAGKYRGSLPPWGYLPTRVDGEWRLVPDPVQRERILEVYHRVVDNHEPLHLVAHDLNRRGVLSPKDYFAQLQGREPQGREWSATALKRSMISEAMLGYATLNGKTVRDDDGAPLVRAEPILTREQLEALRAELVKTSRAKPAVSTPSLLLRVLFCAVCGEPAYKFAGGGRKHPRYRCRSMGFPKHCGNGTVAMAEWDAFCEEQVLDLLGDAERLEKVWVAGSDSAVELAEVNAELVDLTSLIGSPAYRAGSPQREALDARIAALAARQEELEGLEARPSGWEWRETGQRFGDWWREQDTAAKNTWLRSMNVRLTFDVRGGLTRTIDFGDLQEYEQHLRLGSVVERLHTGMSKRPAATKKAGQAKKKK

[2] = system: Bxb1 integrase (Mycobacteriophage Bxb1?); test: cell_activity; details: 0.85% without integrase

With Bxb1 attB (donor plasmid with GFP) as the substance, how does the activity (% integration) ([1]; attB donor partner, HEK293 H11) read?
The activity (% integration) was 45.2.

What about the activity (% GFP-positive cells) ([2]; attB donor partner of attP at H11 in HEK293) of the same substance?
Its activity (% GFP-positive cells) is 19.4.

“Bxb1 attP (landing pad at H11 or AAVS1 locus)” was tested. Which activity (% integration) ([1]; HEK293 H11 attP, 43.5% at 700 nM VPA) did it give?
The activity (% integration) was 45.2.

What about the activity (% GFP-positive cells) ([2]; attP x attB integration at H11 in HEK293, AAVS1 locus 15.4% (0.74% without)) of the same substance?
The activity (% GFP-positive cells) was 19.4.
